The record followed here is paper doi:10.64898/2025.12.19.695307 (bioRxiv, 2025).

The target in assay [1] is T1, SARS-CoV-2 KP.3 RBD (SARS-CoV-2 Omicron KP.3, strain, N354 glycosylation). In words: cell-based or functional assay.
In a further assay the target is SARS-CoV-2 BA.2.86 RBD (SARS-CoV-2 Omicron BA.2.86, strain, N354 glycosylation). Nature of the assay: BLI. (In general: Biolayer interferometry detects binding as a change in optical thickness at a sensor tip.)
The next assay concerns the target SARS-CoV-2 JD.1.1 RBD (SARS-CoV-2 Omicron JD.1.1, strain). Nature of the assay: BLI.
The target of assay [2] is T1, SARS-CoV-2 KP.3 RBD. In words: BLI.
Assay [3] addresses SARS-CoV-2 Omicron XBB.1.5 RBD (SARS-CoV-2 Omicron XBB.1.5, F490S). In words: BLI.
In assay [4] the target is SARS-CoV-2 Omicron BA.4/5 RBD (SARS-CoV-2 Omicron BA.4/5, L452R). In words: BLI.
Another assay concerns the target SARS-CoV-2 JN.1 RBD (SARS-CoV-2 Omicron JN.1, strain, N354 glycosylation). Nature of the assay: BLI.
Assay [5] addresses SARS-CoV-2 Delta (B.1.617.2) RBD (SARS-CoV-2 Delta (B.1.617.2), L452R). In words: BLI.
For another assay, the target named is SARS-CoV-2 HK.3 RBD (SARS-CoV-2 Omicron HK.3, strain). Nature of the assay: BLI.
Assay [6] deals with SARS-CoV-2 Omicron EG.5.1 RBD (SARS-CoV-2 Omicron EG.5.1, F490S). Nature of the assay: BLI.
Assay [7] addresses SARS-CoV-2 Kappa (B.1.617.1) RBD (SARS-CoV-2 Kappa (B.1.617.1), L452R). Nature of the assay: BLI.
Assay [8] concerns the target SARS-CoV-2 Omicron BQ.1.1 RBD (SARS-CoV-2 Omicron BQ.1.1, R346T | L452R). Nature of the assay: BLI.

Bounds are passed on as bounds.

B1: ZL525 (antibody, V domains shown)
V domain 1: QVQLVQSGAEVKKPGSSMKVSCQASGGTFSSHPISWIRQAPGQGLEWMGRIIPIAGMTDYGQKFQGRITITADTSTSTSYVELRGLRSQDTAFYYCAKDVGYSDYGSAYYFHTWGQGTLITVSS
V domain 2: QSVLTQPPSVSGAPGQRVTISCTGSNSNIGAGYDVHWYQQLPGTAPKLLIYRNNKRPSGVPDRFSGSKSDTSASLAITGLQAEDEAHYYCQSFDSSLGGSLFGGGTKLAVL
In general, Kd refers to the equilibrium constant for the complex coming apart. Lower therefore signals a tighter complex. Consider B1, for which, in the assay with SARS-CoV-2 KP.3 RBD [1], the “IC50 of neutralisation of authentic KP.3 virus (focus reduction, Vero E6)” value amounted to 0.107 µg/mL. The dissociation constant (Kd) with SARS-CoV-2 BA.2.86 RBD was under 1.11 nM; with SARS-CoV-2 JD.1.1 RBD it was under 1.11 nM; with SARS-CoV-2 KP.3 RBD [2], under 1.11 nM; in assay [3], under 0.71 nM; in [4] it was under 0.71 nM; with SARS-CoV-2 JN.1 RBD it was under 1.11 nM. The Kd is under 0.71 nM in [5]; under 1.11 nM with SARS-CoV-2 HK.3 RBD; under 0.71 nM in assay [6]; under 0.71 nM in [7]; under 0.71 nM in assay [8].
